Source: the DeepSol protein solubility set

Experiment: soluble on expression in E. coli; label from the status in PepcDB or PDB records
With “MFLDRERELQFLERRYEMGGPEFIVIYGRRRVGKTALLLEFISRHGGIYLLARETSNLENLKRFSDRLSEYFGDDFLKRNPFQNWDAFLEYLNQKATERLVVVIDEFPYLVKGDRSLPSILQEYWDLKLSNGRIFLIICGSSISMMEKLLGYKSPIYGRRTGQINLKPVDFLHAREFLPGYSLEDFIKAYGILGGSPAHLLEFDDSKTIKENLLEYLRSDSLLYQDAFFVLREELEEPRNYFAIMEAVAAGKTSLGEIMNETGLSRATVAKYLSVLIELDFVKREIPITASRKSRRGRYYIKDNYFAFWFRYIHPNIDFIESERRKELLELIIDDLPNYLGGIFENVAIEFLPLISNKLPFKPLKIGRWWHKNEEIDLVAFNEKEEKAILIEVKWKTLNKIEANKILKDLNRKSKILKMKEWEQYHGIIAKRVKDKEKIKGGLIWDLEDIENLKFSPELEHHHHHH” the “soluble on expression in E. coli” value was “not soluble”. With “MRRVVVTGLGALTPIGVGQEAFHKAQLAGKSGVRPITRFDASALPVRIAAEVDVDPGAYLDRKELRRLDRFVQYALIAAQLALEDAGLKPEDLDPERVGTLVGTGIGGMETWEAQSRVFLERGPNRISPFFIPMMIANMASAHIAMRYGFTGPSSTVVTACATGADALGSALRMIQLGEADLVLAGGTEAAITPMAIGAFAVMRALSTRNEEPEKASRPFTLSRDGFVMGEGAGVLVLEAYEHAKKRGARIYAELVGFGRSADAHHITEPHPEGKGAALAMARALKDAGIAPEQVGYINAHGTSTPVGDRAEVLAIKRVFGDHAKRLMVSSTKSMIGHLLGAAGAVEAIATVQALYHGVIPPTINLEDPDPELDLDFVPEPREAKVDYALSNSFAFGGHNAVLAFKRV” the “soluble on expression in E. coli” value was “soluble”. For “MGLNVREGEIMAKNRSRRLRKKMHIDEFQELGFSVAWRFPEGTSEEQIDKIVDDFINEVIEPNKLAFDGSGYLAWEGLICMQEIGKCTEEHQAIVRKWLEECKLDEVRTSELFDVWWD”, the “soluble on expression in E. coli” value was “not soluble”. In the case of “GSESKCPEELANYCDMLLRKTPLSKKLTSEEIEAKLKEVLKKLKYVQNKDVFMRYHKAHLTRRLILDISADSEIEENMVEWLREVGMPADYVNKLARMFQDIKVSEDLNQAFKEMHKNNKLALPADSVNIKILNAGAWSRSSEKVFVSLPTELEDLIPEVEEFYKKNHSGRKLHWHHLMSNGIITFKNEVGQYDLEVTTFQLAVLFAWNQRPREKISFENLKLATELPDAELRRTLWSLVAFPKLKRQVLLYEPQVNSPKDFTEGTLFSVNQEFSLIKNAKVQKRGKINLIGRLQLTTERMREEENEGIVQLRILRTQEAIIQIMKMRKKISNAQLQTELVEILKNMFLPQKKMIKEQIEWLIEHKYIRRDESDINTFIYMA”, the “soluble on expression in E. coli” value is reported as “soluble”. In the case of “MVLTDEQRQAIAKKREEAIRRAAAYREREMQAAANATASTSSAAPPAPPKPVIPVMFSQNRQNFQPMKPTMNNSTKQSTINNYIKQVQKPEPTSLIKPTIGVKLKLDIGDRIKIEFYPFHSAVIDLIKQVPSRNYDPAKRSWTVASSDHITISNILKNATAVKVELEPLPQNIIGLTNFKPKAAPSDLNTVMDPSLIERLFPYQKEGVIFALERDGRILLADEMGLGKSVQALTIARYYKADWPLLIVCPASVKGAWKKQLNTFFPIIHRIFIVDKSSDPLPDVCTSNTVAIMSYEQMVLKHDILKKEKYRTIIFDESHMLKDGKARRTKVATDLSKVALHVILLSGTPALSRPSELFTQIRLIDHKLFTNFHEFAIRYCDGKQGRFCFEAKGCTNSEELAAIMFKRLMIRRLKADVLKDLPEKRREVVYVSGPTIDARMDDLQKARADYEKVNSMERKHESLLEFYSLTGIVKAAAVCEHILENYFYPDAPPRKVLIFAHHQIVLDTIQVEVNKRKLGSIRIDGKTPSHRRTALCDSFQTDDNIRVAVLSITAAGVGITLTAASVVVFAEIHFNPGYLVQAEDRAHRVGQKDSVFVQYLIAKKTADDVMWNMVQQKLDVLGQVSLSSDTFRTADKMHLRFNDAAQPGIAEYLKKTPDTTIDEWEDPVEEKEDDDLEIICDSPAPKRIKN”, the “soluble on expression in E. coli” value is reported as “not soluble”. With “MSLSYRIDVLLFNKFETLDVFGPVEIFGNLQDDFELNFISSDGGLVESSQKVRVETSLYTRDENIEKILFVPGGSGTREKVNDDNFINFIGNMVKESKYIISVCTGSALLSKAGILNGKRATTNKRSFKWVTEQNEDVLWVKEARWVKDGNIYTSSGVSAGIDMTLGFIEDLIGKEKALEISRSIEYFWNEDSNYDPFSKIYGEGHHHHHH” the “soluble on expression in E. coli” value was “soluble”. With “KDFCASIHRNDSLSLTHELEPFIDSMKNKTGVYVLEDGGGSLITRAWLSEYAEETIDIQYFIFSADNVGLIACDYLVRAADRGVKVRILIDDILVEAGVHEILTLDSHENIEIKIYNPGINLGKNIFNKIGKFTTDFRGANQRMHNKTFIVDHKVVITGGRNIADEYFDYDHEYNFRDRDVLLIGKTATDVQQSFESFWVDALSIPITGLVKEDDVTYTDTSRFERLHQYACNPDNFWPQVRKRISN” the “soluble on expression in E. coli” value was “not soluble”. For “MDFKHLTQFKDIIELDKRPVKLDERETFNVSWGIDENYQVGAAISIASILENNKQNKFTFHIIADYLDKEYIELLSQLATKYQTVIKLYHIDSEPLKALPQSNIWPVSIYYRLLSFDYFSARLDSLLYLDADIVCKGSLNELIALEFKDEYGAVVIDVDAMQSKSAERLCNEDFNGSYFNSGVMYINLREWLKQRLTEKFFDLLSDESIIKKLKYPDQDILNLMFLHHAKILPRKYNCIYTIKSEFEEKNSEYYTRFINDDTVFIHYTGITKPWHDWANYASADYFRNIYNISPWRNIPYKKAVKKHEYKEKYKHLLYQKKFLDGVFTAIKYNVMKG”, the “soluble on expression in E. coli” value was “not soluble”. For “MEKLTKRQQDILDFIKLKVQEKGYPPSVREIGQAVGLASSSTVHGHLSRLEEKGYIRRDPTKPRAIEILGEDRMDTETQSVIQVPIVGKVTAGLPITAVESVEEHFPLPASIVAGADQVFMLRISGDSMIEAGIFDGDLVVVRQQQSAYNGEIVVALTEDNEATVKRFYKEKDHFRLQPENSSLEPIILKQVSVIGKVIGVYRDLH”, the “soluble on expression in E. coli” value was “not soluble”. For “MGSDKIHHHHHHMTPRELTCDETLAEMARVLTVEAAALTQMASEVGDPQLKAVEILEAMEGRVIVSGVGKSGHIGNKIAATLASTGTPAQFVHATEASHGDLGMVTPRDVCLVISNSGETSELADIVTYSRRFAIPLIAITRKADSTLATQADVVLLLPDAPEACGIGMAPTTSTTATLAMGDALAVALMKRRGFEREDFKVFHPGGKLGAQLMLVDGLMHTGEALPLVAPETPMTEALLIMTAKGFGLAGLVEGGRLTGIITDGDLRRNMDGLMARSAGEVATRGPKVIRRGSLASEALHDMNSRKISALFVLDNEDRVAGLLHIHDCLRAGLA”, the “soluble on expression in E. coli” value was “not soluble”. In the case of “MSLTWKHYLSAWQNADLSNEWRRELQRVEEEQERFDGYLTFGTGGMRGKMGIGTKRINLFTIRRVAKGLGDYVVANEGAEMGVAIAFDSRHHSGAFAQETAKVLAAQGINVYLSDSIRPTPALSFCVREKGAFAGVVITASHNPSIYNGFKVYDKNGCQITLGVAQEIAGYLEKITDIFTIPVRELPNPLVTPLGKEMDDAYLNALTAVVSRPDLLADYGNELRICYTPLHGAGKELVMRGLLENGFSETTIIAEQSEPDGDFPTVISPNPEEENSFDLAKKLAKEIQADIILATDPDADRLGVAVLNKQATYQILTGNQLGALLLNYILEAKTPVTGADTMINTIVTGDLGGKIAYDFGINHIQTLTGFKFIGEKIAEMEGTEKNFLFGYEESYGYLIAPFVRDKDAVQAALLTAEMALFYKKEGTTLLGKLTNLFEKFGYHKEYLHTITLDDSDGITKMIQVIDALRKEPIFMPEITVVEDFLTSKRTNFVTMEVTNIELPKENVLKFYLMDSSWFAIRPSGTEPKCKIYFQTSGETEEIATKAMNELRKRVLAVWDEGHHHHHH”, the “soluble on expression in E. coli” value is reported as “soluble”. With “MEDKRLIREKILRNLNSIDKVEHRERSIKLAEKLFLLPEWENAKVVGITLARHPEIETEAIILQAKKEGKTILIPKTYYPSRKMEFKKMDSIHPLIKSKFGILEPNELAETVDKKVIDLLIVPGVAFNKDHYRIGFGGGFYDRFLTDFQGHTVSLYLYEQQIEFTPETHDEPVSILIGGLEHHHHHH” the “soluble on expression in E. coli” value was “not soluble”. For “MGSDKIHHHHHHMKELVNILDFLPEELGEKIKPMFRVKQIYQWIYQKYANNFSDMSSLPKDLRLELARNFHFSPVKCVKNEQSKDGSIKYLFELIDGLRVESVLLPMKEEKIDAEGKRISHARYTICVSSQVGCKSGCSFCLTAKGGLKRNLSAGEIVGQILWIKKQNNIPYERRVNIVYMGMGEPLDNLKNVSKAVKILAQNEGLAISPRRQTISTSGLAKQIKELGQMNLGVLLAISLHAVNDELRTELMPINKAYNIAAIMDAVREFPIDQRKRVMFEYLLIDGINDKLEHAKELVKLLNGIKAKVNLILFNPHEGSLYKRPSLENAIKFQDLLSNKGVTCTIRESKGLDISAACGQLKERAKEQ”, the “soluble on expression in E. coli” value was “not soluble”. In the case of “MPMPNLPKELVEEILSFVPATYLKRLSATCKPWNRLIHNDKRFARKHYDNAAKEFLVFMMRKNFRIIRRGVNLHGADPSAEVKGELTLPDPYFKNSADEFHIDRVFHCDGLLLCTSKLERRMVVWNPLTGETKWIQTHEEGDNFFLGYSQEDKNISCKKSYKIMGFYRSGSKVWEYDFNSDSWRVLNGILPNWYFDKSYKCVSLKGNTYMLAGAVTDMGFDLSLQSYDFSTEKFAPVSLPVPSQARSLNGANRLSVVRGEKLALLYRRDKRSKAEIWVTNKIDDTTEGAVSWTKVLELDLSRELHALFTSNFLVDEEKKVFICCVSWKEDEDENKSNKVYIVGEDNIVKEIDSGEDATSGCEPTILSLYVPSLVYM”, the “soluble on expression in E. coli” value is reported as “soluble”. For “MPRYIVRPFHLLNLPTVVISEVLNHLKNIDICILRTTSRKIRTIGKLSARRKQTYLVGHRRLDLTINARFGKFKVESGARDGTVALYAGYDINRVLDITSDFFDYLDIYIYLYIIDNHSDKDAKKLVEVIVTKGIYVHYLRFDGEQISHELFREMLKCDVNELRIHLRTQHTVELSDIDLMVSCKCVALTRITIPSDYLNVLLKKWQANRNLTFFSASGMALTLDKSIILEGTNSEQGSEEYNFYIKCNNRKTALLKILHNSFRLGNVY”, the “soluble on expression in E. coli” value was “not soluble”. With “MGNDKRVRKPEWLKISIGANERYTETKRIVESHCLHTICSSGRCPNMGECWGKGTATFMIAGDICTRSCKFCNTQTGRPLPLDPDEPTHVAESIALMKLSHAVITSVDRDDLPDLGAAHWAQTIREIKRLNPETTTEVLIPDFQGRKELVDQVIKACPEIISHNMETVKRISPQVRSAANYHTSLEVIRQIAESGITAKSGIMVGLGETPAEVEELMDDLISVGCKILTIGQYLQPTHKHFPVAAYITPEQFAVYKETGLKKGFEQVESAPLVRSSYHAEKHIRFNNK” the “soluble on expression in E. coli” value was “not soluble”. With “MSNSTMEATQMKVKLAVDEMIDDLDKTYLRDMQKSMFQCSARCCDNKKTTRDAVENCVESCNDGMKKAQGYLEKELGGLQDQLSRCAMTCYDKLVQQFGPDVNKYSESQKLSFNEKLDSCVSVCADDHIKLIPAIKKRFAKNT” the “soluble on expression in E. coli” value was “not soluble”. In the case of “SSEADQALVGPKADEPSPPAEEKDEGGGKEAAADAAPGPSASFRLMVTRREPAVKLQYAVSGLEPLSWSEDHRVSVSTARSVAVLELICDVHNPGQDLVIHRTSVPAPLNSCLLKVGSKTEVAECKEKFASSKDPTISQTFMLDRMFNPEGKALPPMRGFKYTSWSPMGCDANGRCLLAALTMDNRLTVQVNLNRLQWVQLVDLTEIYGDRLYETSYRLSKNEAPEGNLGDFAEFQRRHSMQTPVRMEWSSICTTQQVKHNNECRDVSS”, the “soluble on expression in E. coli” value is reported as “soluble”. For “SSEVLDGFDKVDKSLASSIDGSDKRNNLVLSELNTAYRTNPEKVKVWYERSLVLQKEADSLCTFIDDLKLAIARESDGKDAKVNDIRRKDNLDASSVIMLNPINGKGSTLRKEVDKFRELVATLMTDKAKLKLIEQALNTESGTKGKSWESSLFENMPTVAAITLLTKLQSDVRYAQGEVLADLVKSVDVGDYRVNSITAQVIPQSQIVMSGDTYKANIVLSSVDTTQRPDVFVNGKLLSPENMGLFTATAGAPGTYPVKGYIEMMGNDGVKIRRDFESEYFVTE”, the “soluble on expression in E. coli” value was “not soluble”.
